# From the supplement of paper PMC10126150
# ± gives the standard deviation of the averaged measurements.
# System: ATP
# Assay: switch fluorescence ratio, 500 uM ATP over buffer (Cy3 cluster intensity, sum of 5 cycles each) (fold (ratio)); higher = stronger signal-on switching upon ATP binding; sequences stand for … in TCGTCGGCAGCGTCAGATGTGTATAAGAGACAGTTTTTTTTTTTTTTTTTTTTTTTTT…TC
# Details: aptamer strand: ATP DNA aptamer (quencher-CACCTGGGGGAGTATTGCGGAGGAAGG + anchor), 100 nM annealed; ATP concentration: 500 uM
# In short: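 Five buffer/ATP imaging cycles were run on Cy3-labelled switching-strand clusters on a modified Illumina MiSeq flow-cell, with NaOH stripping and re-annealing between cycles. In each cycle, clusters annealed to 100 nM quencher-labelled ATP aptamer were imaged in selection buffer, then after 15 min with 500 uM ATP at 22 °C. Per cluster, the fluorescence ratio is summed target-cycle over summed buffer-cycle Cy3 intensity, averaged per switch-domain sequence. Only clusters within 100-1000 RFU were kept.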
# 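Further: ATP exposure 15 min at 22 °C before imaging.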
row,Sequence,switch fluorescence ratio
1,AATGGGGAAA,1 ± 0.028
2,AATGGGGAAG,0.985 ± 0.018
3,AATGGGGGAT,0.988 ± 0.029
4,AATGGGGGG,0.986 ± 0.039
5,AATGGGTGAT,0.9826 ± 0.0024
6,AATGGGTGCA,1.03 ± 0.054
7,AATGGTATGG,0.982 ± 0.024
8,AATGGTGTAC,1.03 ± 0.011
9,AATGGTGTAG,1.003 ± 0.0013
10,AATGGTTCGG,0.962 ± 0.036
11,AATGGTTTAT,0.9489 ± 0.0065
12,AATGGTTTGT,0.999 ± 0.025
13,AATGTAAAAG,0.988 ± 0.039
14,AATGTAAAGT,1.001 ± 0.0047
15,AATGTAATCA,0.997 ± 0.024
16,AATGTAATTA,1.01 ± 0.011
17,AATGTATGGG,0.99 ± 0.058
18,AATGTCAGCG,0.999 ± 0.037
19,AATGTCTCTC,0.998 ± 0.058
20,AATGTGAAAA,0.976 ± 0.053
21,AATGTGCTAG,0.995 ± 0.021
22,AATGTGCTGG,0.993 ± 0.018
23,AATGTGGGAA,1.01 ± 0.044
24,AATGTGGGTC,0.9392 ± 0.006
25,AATGTGTACT,1.03 ± 0.032

row,Sequence,switch fluorescence ratio
1,AATGTGTCA,1.01 ± 0.011
2,AATGTTCGTT,1.01 ± 0.014
3,AATGTTCTGG,0.99 ± 0.032
4,AATGTTGCGT,0.99 ± 0.028
5,AATGTTGTGG,0.985 ± 0.031
6,AATGTTTATC,1.027 ± 0.0084
7,AATGTTTATT,0.954 ± 0.01
8,AATGTTTTAC,0.97 ± 0.035
9,AATTAACGGG,1.02 ± 0.019
10,AATTAATAAG,1.011 ± 0.0076
11,AATTAATGCA,1.01 ± 0.038
12,AATTACCGCG,1.03 ± 0.023
13,AATTACGTGT,1.0006 ± 0.00059
14,AATTAGACGG,1.03 ± 0.046
15,AATTAGCATC,1.06 ± 0.044
16,AATTAGCCAT,0.987 ± 0.011
17,AATTAGCTGA,1.01 ± 0.029
18,AATTAGCTGC,1.04 ± 0.043
19,AATTAGGGCT,0.971 ± 0.026
20,AATTAGGTGA,1.04 ± 0.031
21,AATTAGTATG,0.999 ± 0.014
22,AATTATACGT,1.05 ± 0.014
23,AATTATAGTT,0.99268 ± 5.5e-05
24,AATTATCATC,1.02 ± 0.013
25,AATTATCCTT,1.07 ± 0.037

row,Sequence,switch fluorescence ratio
1,AATTATCGAC,1 ± 0.031
2,AATTATGGTG,1.01 ± 0.012
3,AATTATGGTT,1.03 ± 0.012
4,AATTATTCGA,1.02 ± 0.011
5,AATTATTCGT,1.024 ± 0.01
6,AATTATTGGT,1.01 ± 0.026
7,AATTCAACAG,1.01 ± 0.03
8,AATTCAATGA,1.01 ± 0.045
9,AATTCACTAA,1.028 ± 0.0063
10,AATTCAGCCA,0.9878 ± 0.0057
11,AATTCGATAG,0.966 ± 0.0039
12,AATTCGCGTT,0.9868 ± 0.004
13,AATTCGTGCA,1.03 ± 0.036
14,AATTCTGGTT,0.9664 ± 0.0018
15,AATTGAGTGT,1.01 ± 0.019
16,AATTGATTGT,0.993 ± 0.051
17,AATTGATTTA,1 ± 0.086
18,AATTGATTTT,1.01 ± 0.03
19,AATTGCAGAG,1.014 ± 0.0032
20,AATTGCGTTG,0.979 ± 0.025
21,AATTGGCCGG,0.989 ± 0.011
22,AATTGGGGGA,0.979 ± 0.031
23,AATTGGTAAA,0.9816 ± 0.0044
24,AATTGGTGCA,0.96 ± 0.011
25,AATTGTAAAA,0.988 ± 0.027

row,Sequence,switch fluorescence ratio
1,AATTGTATAT,0.985 ± 0.042
2,AATTGTGAGT,0.985 ± 0.024
3,AATTGTTAAC,0.995 ± 0.016
4,AATTGTTTAG,0.982 ± 0.034
5,AATTGTTTTT,1 ± 0.021
6,AATTTAAAAC,1.02 ± 0.031
7,AATTTAGGAT,0.989 ± 0.027
8,AATTTAGGCC,1.023 ± 0.0087
9,AATTTAGGGA,1 ± 0.0089
10,AATTTAGGGT,1.01 ± 0.028
11,AATTTATGGG,0.986 ± 0.021
12,AATTTATTTG,1.01 ± 0.037
13,AATTTATTTT,0.991 ± 0.026
14,AATTTCTGTG,0.978 ± 0.035
15,AATTTGAATT,0.98 ± 0.013
16,AATTTGACGT,0.981 ± 0.034
17,AATTTGATAA,0.981 ± 0.011
18,AATTTGGTAA,0.999 ± 0.019
19,AATTTGTAAG,1.01 ± 0.023
20,AATTTGTACC,0.989 ± 0.013
21,AATTTGTAGA,0.9996 ± 0.0047
22,AATTTTACGA,1.04 ± 0.024
23,AATTTTAGGT,0.959 ± 0.015
24,AATTTTATCG,0.9741 ± 0.0085
25,AATTTTATGT,1.01 ± 0.011

row,Sequence,switch fluorescence ratio
1,AATTTTGGGA,0.994 ± 0.023
2,AATTTTGTTT,0.991 ± 0.035
3,AATTTTTCTC,1.05 ± 0.1
4,AATTTTTCTT,0.98 ± 0.05
5,AATTTTTGAT,0.979 ± 0.037
6,AATTTTTGCT,0.966 ± 0.011
7,AATTTTTGGG,0.994 ± 0.03
8,AATTTTTTAA,0.985 ± 0.019
9,AATTTTTTGT,1.01 ± 0.033
10,ACAAAACATG,1.16 ± 0.15
11,ACAAAACGTT,1.028 ± 0.0078
12,ACAAAATGTT,1.02 ± 0.019
13,ACAAAGATGA,0.973 ± 0.015
14,ACAACATCCT,1.08 ± 0.044
15,ACAACGGAAG,1.03 ± 0.035
16,ACAACGGGGT,1.01 ± 0.046
17,ACAAGCGTTT,1.01 ± 0.036
18,ACAAGGCCTT,0.993 ± 0.031
19,ACAAGGGGCA,1.01 ± 0.028
20,ACAAGGGGCT,1.02 ± 0.021
21,ACAAGGTGTT,1.2 ± 0.022
22,ACAAGTTCAG,0.993 ± 0.023
23,ACAATGAGTT,0.985 ± 0.015
24,ACAATGTCGG,0.998 ± 0.011
25,ACAATGTGTG,0.985 ± 0.038

row,Sequence,switch fluorescence ratio
1,ACACAAATGA,1.01 ± 0.024
2,ACACATAGGG,0.9985 ± 0.0084
3,ACACCGGTTA,1.01 ± 0.035
4,ACACCTAGGC,1.12 ± 0.054
5,ACACGATGGG,1 ± 0.019
6,ACACGGGGAA,1.0184 ± 0.00046
7,ACACGGGTTA,1 ± 0.047
8,ACACGTACTT,1.52 ± 0.065
9,ACACGTGGTT,1.04 ± 0.076
10,ACACGTTCTT,0.996 ± 0.019
11,ACACTAATCT,1.16 ± 0.15
12,ACACTACGTC,1.51 ± 0.056
13,ACACTCAGAG,1.019 ± 0.004
14,ACACTGGCCC,0.964 ± 0.038
15,ACACTGGGCA,1.022 ± 0.0053
16,ACAGAAGGGT,0.972 ± 0.098
17,ACAGAAGGTC,0.977 ± 0.015
18,ACAGACTCGG,1.039 ± 0.0036
19,ACAGAGGGTG,1.08 ± 0.095
20,ACAGAGGTTT,0.984 ± 0.035
21,ACAGATGAGC,1.01 ± 0.056
22,ACAGATGGGA,1.04 ± 0.046
23,ACAGCGCAAT,2.12 ± 0.94
24,ACAGCGCGAC,1.32 ± 0.017
25,ACAGCGCTTT,1.03 ± 0.025

row,Sequence,switch fluorescence ratio
1,ACAGCGGGA,1.0254 ± 4.6e-06
2,ACAGCGTGTG,1.03 ± 0.011
3,ACAGCTGCTT,0.981 ± 0.028
4,ACAGCTGTTT,0.998 ± 0.027
5,ACAGGAGAC,1.0379 ± 0.00024
6,ACAGGGAGTA,0.9864 ± 0.003
7,ACAGGGCGGG,1.01 ± 0.035
8,ACAGGGCTAT,1.02 ± 0.014
9,ACAGGGGATG,1.08 ± 0.16
10,ACAGGGGCAG,1.02 ± 0.017
11,ACAGGGGGAG,0.983 ± 0.024
12,ACAGGGGTCT,1.06 ± 0.024
13,ACAGGGTCG,0.948 ± 0.025
14,ACAGGTTAAT,1.02 ± 0.02
15,ACAGGTTAGT,0.989 ± 0.034
16,ACAGGTTGAA,0.996 ± 0.036
17,ACAGGTTTTT,1.01 ± 0.023
18,ACAGTAACTT,1.092 ± 0.0098
19,ACAGTAGGA,1.06 ± 0.013
20,ACAGTATCGG,1.06 ± 0.013
21,ACAGTATGGA,1 ± 0.011
22,ACAGTATTCT,1.047 ± 0.01
23,ACAGTCGTAG,1 ± 0.015
24,ACAGTCTGTT,1.01 ± 0.048
25,ACAGTGGGAA,1.014 ± 0.0044

row,Sequence,switch fluorescence ratio
1,ACAGTGGGAG,1.011 ± 0.003
2,ACAGTGGTCG,1.06 ± 0.033
3,ACAGTGTGGT,1.07 ± 0.031
4,ACAGTTGCTC,1.02 ± 0.02
5,ACATAACGAA,1.21 ± 0.013
6,ACATAATATT,1.06 ± 0.036
7,ACATACTGCG,1.323 ± 0.0038
8,ACATAGAACG,1.06 ± 0.038
9,ACATAGCGAA,1.13 ± 0.026
10,ACATAGTAAT,1.001 ± 0.0092
11,ACATAGTTTT,0.9994 ± 0.0075
12,ACATATCCGT,1.01 ± 0.021
13,ACATCAAGGG,1.06 ± 0.055
14,ACATCCCGTT,1.05 ± 0.048
15,ACATCGGCTT,0.998 ± 0.015
16,ACATGAATTT,1 ± 0.029
17,ACATGACGGG,1.06 ± 0.015
18,ACATGCCGGG,1.03 ± 0.085
19,ACATGGAGGG,1.01 ± 0.057
20,ACATGGGATT,1.01 ± 0.043
21,ACATGGGGAA,0.994 ± 0.012
22,ACATGTGGGG,1.04 ± 0.025
23,ACATTAAAAA,1.26 ± 0.013
24,ACATTAGTTT,1.013 ± 0.0056
25,ACATTATGGA,1.035 ± 0.0081
